This is an account of results in patent US20220073608A1 (JIANGSU HUAIYU PHARMACEUTICAL, published 2022).

The target in experiment [1] is T1, human SEMA4D, full length, on CHO-K1 cells (CHO-K1 hSEMA4D) (human, UniProt Q92854 22-862).
T1 construct: whole, on cells; also called human SEMA4D recombinant cells
T1 sequence (looked up): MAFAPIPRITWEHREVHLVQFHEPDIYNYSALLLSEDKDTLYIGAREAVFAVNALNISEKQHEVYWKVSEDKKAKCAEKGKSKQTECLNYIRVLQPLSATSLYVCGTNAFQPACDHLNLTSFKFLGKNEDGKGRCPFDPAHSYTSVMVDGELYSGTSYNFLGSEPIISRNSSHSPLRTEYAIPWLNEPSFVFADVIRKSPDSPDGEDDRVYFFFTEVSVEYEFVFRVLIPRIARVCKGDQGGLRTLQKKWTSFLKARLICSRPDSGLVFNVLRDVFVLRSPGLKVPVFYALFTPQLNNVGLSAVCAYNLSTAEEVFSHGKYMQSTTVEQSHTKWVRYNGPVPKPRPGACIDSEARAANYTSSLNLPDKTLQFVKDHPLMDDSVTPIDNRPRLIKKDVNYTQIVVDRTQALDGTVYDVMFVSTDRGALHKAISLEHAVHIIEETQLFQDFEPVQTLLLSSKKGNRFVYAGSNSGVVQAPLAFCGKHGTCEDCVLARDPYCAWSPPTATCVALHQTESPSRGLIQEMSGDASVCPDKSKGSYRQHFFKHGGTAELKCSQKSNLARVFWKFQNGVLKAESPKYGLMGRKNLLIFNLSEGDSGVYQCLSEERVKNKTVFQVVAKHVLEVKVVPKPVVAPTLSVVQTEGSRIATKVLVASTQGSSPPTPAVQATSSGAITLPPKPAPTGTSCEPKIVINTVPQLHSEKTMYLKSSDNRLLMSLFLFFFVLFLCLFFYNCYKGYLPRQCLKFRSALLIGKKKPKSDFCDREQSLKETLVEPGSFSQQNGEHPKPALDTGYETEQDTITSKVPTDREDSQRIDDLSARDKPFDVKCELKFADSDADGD
The experiment is described as follows: FACS, CHO-K1 hSEMA4D cells; Ab 0.0213 nM. Here is the method:
The medium was aspirated, the cells were washed once with PBS buffer (purchased from Invitrogen), and then treated with cell dissociation fluid (TrypLE™ Express Enzyme, purchased from Life technology), and the cells were collected. After the cells counted, the cells were washed once with PBS phosphate buffer, and diluted to 3×10⁶ cells per milliliter, and added to the 96-well FACS reaction plate as 100 μL per well. 2% (w/w) fetal calf serum was added to PBS phosphate buffer as FACS buffer, with which the cells were washed once by centrifugation at 2000 rpm 4° C. 100 μL of diluted and purified leading antibodies was added to each well and the plate was incubated for 1 hour on ice. […] Cells were washed 2 times by centrifugation with FACS buffer. The cells were suspended with 200 μL of FACS buffer, and FACS (FACS Verse, purchased from BD) was used to detect and analyze the results.

Experiment [2] deals with T2, hSEMA4D ECD-His (His-tagged human SEMA4D protein extracellular domain, Met22-Arg734) (human, UniProt Q92854 22-734).
T2 construct: Expressed in CHO-S cells, purified on Ni column; also called protein immunogen; immunogen A; not shown: His tag of the pCP vector
T2 sequence: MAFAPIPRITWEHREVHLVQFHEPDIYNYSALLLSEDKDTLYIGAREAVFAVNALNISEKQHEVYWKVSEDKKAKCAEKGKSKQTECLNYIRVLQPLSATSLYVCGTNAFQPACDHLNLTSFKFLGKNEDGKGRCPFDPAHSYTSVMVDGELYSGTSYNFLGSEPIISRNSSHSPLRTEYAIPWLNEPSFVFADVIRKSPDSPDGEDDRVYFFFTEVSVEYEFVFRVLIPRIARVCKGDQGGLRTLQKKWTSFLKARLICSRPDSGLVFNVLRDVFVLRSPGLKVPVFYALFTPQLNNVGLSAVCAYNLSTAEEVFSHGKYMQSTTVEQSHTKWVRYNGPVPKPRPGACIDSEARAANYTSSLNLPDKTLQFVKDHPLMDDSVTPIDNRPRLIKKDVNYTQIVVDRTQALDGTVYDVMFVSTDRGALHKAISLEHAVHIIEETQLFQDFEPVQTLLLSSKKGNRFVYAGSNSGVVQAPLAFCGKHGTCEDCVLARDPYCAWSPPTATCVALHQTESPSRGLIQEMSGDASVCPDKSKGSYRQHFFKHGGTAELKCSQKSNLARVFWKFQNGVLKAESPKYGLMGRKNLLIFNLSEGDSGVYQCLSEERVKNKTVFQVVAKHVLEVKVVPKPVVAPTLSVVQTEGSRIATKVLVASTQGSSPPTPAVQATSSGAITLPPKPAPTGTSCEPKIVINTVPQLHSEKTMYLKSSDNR
The experiment is described as follows: ELISA, coated hSEMA4D ECD-His; Ab 0.267 nM. The method, then: (§1) First, hSEMA4D ECD-His was diluted with PBS to a final concentration of 1.0 μg/mL, and then was added to a 96-well ELISA plate, 100 μL per well, sealed with plastic film and incubated overnight at 4° C. On the next day, the plate was washed with a plate washing solution, that is, PBS buffer containing 0.05% (v/v) Tween20, for 4 times, and added with blocking solution, that is, PBS buffer containing 0.05% (v/v) Tween20 and 2% (w/w) BSA, blocked at 37° C. for 1 hour. The blocking solution was poured out and the plate was washed 4 times with the plate washing solution. 100 μL of the purified leading antibodies obtained in Examples 1 and 2 was added to each well. After incubation at 37° C. for 1 hour, the plate was washed 4 times with a plate washing solution. 100 μL of horseradish peroxidase (HRP) labeled secondary antibody (purchased from Sigma) was added at a dilution of 1:10000 to each well, and the plate was incubated at 37° C. for 1 hour, and washed 4 times with a plate washing solution. 100 μL TMB substrate was added to each well, and the plate was incubated at room temperature for 5 minutes, and added with 100 μL stop solution (1.0N HCl) to each well. A microplate reader (SpectraMax M5e, purchased from Molecular Device) was used to read the A450 nm value. […] Wherein, the data in the table was the OD450 nm value.

The target in experiment [3] is T2, hSEMA4D ECD-His (His-tagged human …). Put plainly: ELISA, coated hSEMA4D ECD-His; Ab 0.000085 nM. The method, then:
as §1

Experiment [4] has the same target. Put plainly: ELISA, coated hSEMA4D ECD-His; Ab 0.00427 nM. The method, then:
as §1

B1: 32C8F10 (antibody, V domains shown)
VH: EVQLQQSGAELVRPGASVKLSCTASGFNIKDEYIHWVKQRPEQGLEWIGWIDPANGHTEYASRFQAKATITADTSSNTAYLQLSSLTSEDTAVYYCTTGDYDGFAYWGQGTLVTVST
VL: QIVLTQSPAIMSASPGEKVTISCSARSSVSYMYWYQQKPGSSPKPWIYRTSNLASGVPARFSGSGSGTSYSLTISSMEAEDAATYYCQHYHTYPYTFGGGTKLEIK
notes: Mouse monoclonal antibody purified from hybridoma supernatant on protein A
Take B1: the MFI in experiment [1] came to 218. Moreover, the OD450 nm was 1.28 in experiment [2], 0.0699 in experiment [3] and 0.0685 in experiment [4].

B2: 31C11G2 (antibody, V domains shown)
VH: EVQLQQSGAELVRPGASVKLSCTASGFNIKDEYIHWVKQRPEQGLEWIGWIDPANGHTEYASRFQAKATITADTSSNTAYLQLSSLTSEDTAVYYCTTGDYDGFVYWGQGTLVTVST
VL: QIVLTQSPAIMSASPGEKVTIFCSARSSVSYMYWYQQKPGSSPKPWIYRTSNLASGVPARFSGSGSGTSYSLTISSMEAEDAATYYCQHYHTYPYTFGGGTKLEIK
notes: as for B1
Turning to B2, the MFI in experiment [1] turned out to be 248. In addition, the OD450 nm is 1.47 in experiment [2], 0.0753 in experiment [3] and 0.0939 in experiment [4].

B3: 31G10C5 (antibody, V domains shown)
VH: EVQLQQSGAELVRPGASVKLSCTASGFNIKDDYIHWVKQRPEQGLEWIGWIDPANGHIEYASNFQAKATITADTSSNTAYLQLSSLTSEDTAVYYCTTGDYDGFTYWGQGTLVTVST
VL: QIVLTQSPAIMSASPGEKVTISCSARSSVSYMYWYQQKPGSSPKPWIYRTSNLASGVPARFSGSGSGTSYSLTISSMEAEDAATYYCQHYHTYPYTFGGGTKLEIK
notes: as for B1
In experiment [1], B3 displayed an MFI of 225. In addition, the OD450 nm in experiment [2] came out at 1.15; in experiment [3], 0.0694; in experiment [4] it was 0.0915.

B4: 37C4F7 (antibody, V domains shown)
VH: EFQLQQSGPEVVKPGASVKISCKASGYSFTDYNMNWMKQSKGKSLEWIGVINPNYGTTTYNQNFKGKATLTVDQSSSTAYMQLNSLTSEDSAVYYCARDMYYVYAYYTMDYWGQGTSVTVSS
VL: DVVMTQTPLSLPVSLGDQASISCRSSQSLVHSNGHTYLHWYLQRPGQSPTLLIYKVSNRFSGVPDRFSGSGSGTDFTLKISRVEAEDLGVYFCSQGTHVPWTFGGGTKLEIK
notes: as for B1
B4 had an MFI in experiment [1] of 76.6. Also, the OD450 nm in experiment [2] amounted to 0.41; in experiment [3], 0.0661; in experiment [4], 0.0623.

B5: 38H2E3 (antibody, V domains shown)
VH: EFQLQQSGPEVVKPGASVKISCKASGYSFTDYNMNWMKQSKGKSLEWIGVISPDYGTTTYNQNFKDKATLTVDQSSSTAYMQLNSLTSEDSAVYYCAKDMYYVYAYYTMDYWGHGTSVTVSS
VL: DVVMTQTPLSLPVSLGDQASISCRSSQSLVHSNGHTYLHWYLQRPGQSPTLLIYKVSNRFSGVPDRVSGSGSGTDFTLKISRVEAEDLGVYFCSQGTHVPRTFGGGTKLEIK
notes: as for B1
Turning to B5, the MFI in experiment [1] came out at 78.7. Also, the OD450 nm was 0.531 in experiment [2], 0.0635 in experiment [3] and 0.0744 in experiment [4].

B6: 42B7G2 (antibody, V domains shown)
VH: QVQLQQSGAELARPGASVKLSCKASGYTFTDYGISWVKQRTGQGLEWIGEIYLRNDNSYYNEKFKGKATLTADKSSNTAYMELRSLTSEDSAVYFCARWGDHGNNYEDAMDYWGQGTSVTVSS
VL: DIVLTQSPASLAMSLGKRATISCRASESVSIIGSNLIHWYQQKPGQPPKLLIYHASNLETGVPARFSGSGSRTDFTLTIDPVEEDDVAIYYCLQSRKVPYTFGGGTKLEIK
notes: as for B1
In the case of B6, the MFI in experiment [1] turned out to be 173. Also, the OD450 nm in experiment [2] came to 1.4; in experiment [3] it was 0.0753; in experiment [4], 0.0851.

B7: 37F11F9 (antibody, V domains shown)
VH: EVQLQQSGPVLVKPGASVKMSCKASGYTFTDYYMNWVKQSHGKSLEWIGLINPYSGGSTFNQKFKAKATLTVDKSSSSAYMDLNSLTSEDSAVYYCARVGDGYYGVTHGMDYWGQGTSVTVSS
VL: DIVMTPSQKFMSTTVGDRVSITCKASQNVGTAVAWYQQKPGQSPTILIYSASNRYTGVPDRFTGSGSGTDFTLTISNMKSEDLADYFCQQYYIYPFTFAAGTKLELK
notes: as for B1
On to B7, for which the MFI in experiment [1] stood at 101. The results for the OD450 nm in experiment [2], in experiment [3] and in experiment [4] were 0.89, 0.0658 and 0.0638, respectively.
